# Assay results reported in patent US20240116985A1, “STAPLED PEPTIDES AND METHODS THEREOF” (priority 2020, published 2024).
# Starred links: 1 amine or outer side, 2 acyl side, 3 side chain; linkers in the order of their positions; H or OH if unused. Positions of bridges follow the written chain, without caps; N, C: chain ends. Non-standard residues stand in square brackets, D forms with d. Primed or numbered codes have the meaning given here. PyrS2″ = (S)-3-amino-1-((pent-4-en-1-yloxy)carbonyl)pyrrolidine-3-carboxylic acid (stapling residue), C=CCCCOC(=O)N1CC[C@@](N[*:1])(C(=O)[*:2])C1; B5(4) = 2,2-bis(4-pentenyl)glycine = 2-amino-2-(pent-4-en-1-yl)hept-6-enoic acid (stitching residue), C=CCCCC(CCCC=C)(N[*:1])C(=O)[*:2]; B5(5) = 2,2-bis(4-pentenyl)glycine, 2-amino-2-(pent-4-en-1-yl)hept-6-enoic acid (stitching residue), C=CCCCC(CCCC=C)(N[*:1])C(=O)[*:2]; TfeGA = (S)-2-amino-3-((carboxymethyl)(2,2,2-trifluoroethyl)amino)propanoic acid, O=C([C@H](CN(CC(=O)[*:3])CC(F)(F)F)N[*:1])[*:2]; PyrS2 = (S)-3-amino-1-((pent-4-en-1-yloxy)carbonyl)pyrrolidine-3-carboxylic acid, C=CCCCOC(=O)N1CC[C@@](N[*:1])(C(=O)[*:2])C1; SPip2 = 4-amino-1-((pent-4-en-1-yloxy)carbonyl)piperidine-4-carboxylic acid, C=CCCCOC(=O)N1CCC(N[*:1])(C(=O)[*:2])CC1; B5(12) = 2-amino-2-(pent-4-en-1-yl)hept-6-enoic acid (two olefin side chains), C=CCCCC(CCCC=C)(N[*:1])C(=O)[*:2]; B5(25) = 2-amino-2-(pent-4-en-1-yl)hept-6-enoic acid (stitching residue), C=CCCCC(CCCC=C)(N[*:1])C(=O)[*:2]; EtGA = (S)-2-amino-3-((carboxymethyl)(ethyl)amino)propanoic acid, CCN(CC(=O)[*:3])C[C@H](N[*:1])C(=O)[*:2]; B5(3) = 2,2-bis(4-pentenyl)glycine (stitching residue), C=CCCCC(CCCC=C)(N[*:1])C(=O)[*:2]; B5 = 2-amino-2-(pent-4-en-1-yl)hept-6-enoic acid, C=CCCCC(CCCC=C)(N[*:1])C(=O)[*:2]; Phe(3-COOH) = N[C@@H](Cc1cccc(C(=O)O)c1)C(=O)O; Phe(2-CF3) = N[C@@H](Cc1ccccc1C(F)(F)F)C(=O)O; Phe(2-Cl) = N[C@@H](Cc1ccccc1Cl)C(=O)O; Bta = N[C@@H](Cc1csc2ccccc12)C(=O)O; αAllylPro = C=CC[C@@]1(C(=O)O)CCCN1; tBuAla = CC(C)(C)C[C@H](N)C(=O)O; 3Thi = N[C@@H](Cc1ccsc1)C(=O)O; Aad = N[C@@H](CCCC(=O)O)C(=O)O; Cit = NC(=O)NCCC[C@H](N)C(=O)O; S8 = C=CCCCCCC[C@](C)(N)C(=O)O; Aib = CC(C)(N)C(=O)O
# B1: I-837 (peptide)
# peptide: Ac-[αAllylPro]D[tBuAla][B5(4)]DNAAFN[PyrS2″][3Thi][Bta]H-NH2
# modifications: staple 1-4, 4-11
# B2: I-838 (peptide)
# peptide: Ac-[αAllylPro]D[tBuAla][B5(4)]DQAAFN[PyrS2″][3Thi][Bta]Q-NH2
# modifications: staple 1-4, 4-11
# B3: I-839 (peptide)
# peptide: Ac-[αAllylPro]D[tBuAla][B5(4)]DQAAFN[PyrS2″][3Thi][Bta]H-NH2
# modifications: staple 1-4, 4-11
# B4: I-841 (peptide)
# peptide: Ac-[αAllylPro]D[tBuAla][B5(4)]D[Cit]AAFN[PyrS2″][3Thi][Bta]H-NH2
# modifications: staple 1-4, 4-11
# B5: I-842 (peptide)
# peptide: Ac-[αAllylPro]D[tBuAla][B5(4)]DYAAFN[PyrS2″][3Thi][Bta]Q-NH2
# modifications: staple 1-4, 4-11
# B6: I-2023 (peptide)
# peptide: Ac-[αAllylPro]D[tBuAla][B5(5)]D[Phe(3-COOH)]AAFA[PyrS2″][Phe(2-Cl)][Bta]A-NH2
# modifications: staple 1-4, 4-11
# B7: I-2024 (peptide)
# peptide: Ac-[αAllylPro]D[tBuAla][B5(5)]D[Phe(3-COOH)]AAFA[PyrS2″][Phe(2-Cl)][Bta]V-NH2
# modifications: staple 1-4, 4-11
# B8: I-2026 (peptide)
# peptide: Ac-[αAllylPro]D[tBuAla][B5(5)]D[Phe(3-COOH)]AAFA[PyrS2″][Phe(2-Cl)][Bta][dA]-NH2
# modifications: staple 1-4, 4-11
# B9: I-2028 (peptide)
# peptide: Ac-[αAllylPro]D[tBuAla][B5(5)]D[Phe(3-COOH)]AAFS[PyrS2″][Phe(2-Cl)][Bta]V-NH2
# modifications: staple 1-4, 4-11
# B10: I-2029 (peptide)
# peptide: Ac-[αAllylPro]D[tBuAla][B5(5)]D[Phe(3-COOH)]AAFS[PyrS2″][Phe(2-Cl)][Bta]F-NH2
# modifications: staple 1-4, 4-11
# B11: I-2032 (peptide)
# peptide: Ac-[αAllylPro]D[tBuAla][B5(5)]D[Phe(3-COOH)]AAFN[PyrS2″][Phe(2-Cl)][Bta]V-NH2
# modifications: staple 1-4, 4-11
# B12: I-611 (peptide)
# peptide: Ac-[αAllylPro]DI[B5]D[TfeGA]AAFQ[S8]F[Bta]Q-NH2
# modifications: staple 1-4, 4-11; also: later-eluting staple isomer
# B13: I-612 (peptide)
# peptide: Ac-[αAllylPro]DI[B5]D[Aad]AAFQ[S8]F[Bta]Q-NH2
# modifications: staple 1-4, 4-11
# B14: I-2578 (peptide)
# peptide: Ac-[αAllylPro]D[tBuAla][B5]D[Phe(3-COOH)][Aib]AFK(Ac)[PyrS2][3Thi][Bta]AA-NH2
# modifications: staple 1-4, 4-11; not fully specified; printed as Ac-PL3-Asp-Npg-B5-Asp-3COOHF-Aib-Ala-Phe-AcLys-PyrS2-3Thi-BztA-Ala-Ala-NH2
# B15: I-2576 (peptide)
# peptide: Ac-[αAllylPro]D[tBuAla][B5(25)]D[Phe(3-COOH)][Aib]AF[dS][PyrS2″][3Thi][Bta][dS]A-NH2
# modifications: staple 1-4, 4-11 (inferred); not fully specified; printed as Ac-PL3-Asp-Npg-B5-Asp-3COOHF-Aib-Ala-Phe-dSer-PyrS2-3Thi-BztA-dSer-Ala-NH2
# B16: I-2577 (peptide)
# peptide: Ac-[αAllylPro]D[tBuAla][B5(25)]D[Phe(3-COOH)][Aib]AFS[PyrS2″][3Thi][Bta]SA-NH2
# modifications: staple 1-4, 4-11 (inferred); not fully specified; printed as Ac-PL3-Asp-Npg-B5-Asp-3COOHF-Aib-Ala-Phe-Ser-PyrS2-3Thi-BztA-Ser-Ala-NH2
# B17: I-2579 (peptide)
# peptide: Ac-[αAllylPro]D[tBuAla][B5]D[Phe(3-COOH)][Aib]AFK(Ac)[PyrS2][Phe(2-CF3)][Bta]AA-NH2
# modifications: staple 1-4, 4-11; not fully specified; printed as Ac-PL3-Asp-Npg-B5-Asp-3COOHF-Aib-Ala-Phe-AcLys-PyrS2-2F3MeF-BztA-Ala-Ala-NH2
# B18: I-2592 (peptide)
# peptide: Ac-[αAllylPro]D[tBuAla][B5]D[Phe(3-COOH)]QAFL[SPip2][3Thi][Bta]A-NH2
# modifications: staple 1-4; staple 4-11 (inferred); also: earlier-eluting HPLC staple isomer composition
# B19: I-2593 (peptide)
# peptide: Ac-[αAllylPro]D[tBuAla][B5]D[Phe(3-COOH)]QAFL[SPip2][3Thi][Bta]A-NH2
# modifications: staple 1-4; staple 4-11 (inferred); also: later-eluting HPLC staple isomer composition
# B20: I-608 (peptide)
# peptide: Ac-[αAllylPro]DI[B5(5)]D[EtGA]AAFQ[S8]F[Bta]Q-NH2
# modifications: staple 1-4, 4-11; not fully specified; printed as Ac-PL3-Asp-Ile-B5-Asp-EtGa-Ala-Ala-Phe-Gln-S8-Phe-BztA-Gln-NH2
# B21: I-609 (peptide)
# peptide: Ac-[αAllylPro]DI[B5(5)]D[EtGA]AAFQ[S8]F[Bta]Q-NH2
# modifications: staple 1-4, 4-11; also: staple isomer 2
# B22: I-610 (peptide)
# peptide: Ac-[αAllylPro]DI[B5]D[TfeGA]AAFQ[S8]F[Bta]Q-NH2
# modifications: staple 1-4, 4-11; not fully specified
# B23: I-858 (peptide)
# peptide: Ac-[αAllylPro]D[tBuAla][B5(12)]DQAAFN[PyrS2][3Thi][Bta]-NH2
# modifications: staple 1-4, 4-11
# B24: I-859 (peptide)
# peptide: Ac-[αAllylPro]D[tBuAla][B5(12)]DTAAFN[PyrS2][3Thi][Bta]-NH2
# modifications: staple 1-4, 4-11; also: earlier eluting staple isomer
# B25: I-863 (peptide)
# peptide: Ac-[αAllylPro]D[tBuAla][B5(12)]DHAAFN[PyrS2][3Thi][Bta]-NH2
# modifications: staple 1-4, 4-11
# Molecular target: Bcat-Halo (beta-catenin HaloTag construct expressed in HEK293 cells) (UniProt P35222)
# Sequence (P35222 whole entry): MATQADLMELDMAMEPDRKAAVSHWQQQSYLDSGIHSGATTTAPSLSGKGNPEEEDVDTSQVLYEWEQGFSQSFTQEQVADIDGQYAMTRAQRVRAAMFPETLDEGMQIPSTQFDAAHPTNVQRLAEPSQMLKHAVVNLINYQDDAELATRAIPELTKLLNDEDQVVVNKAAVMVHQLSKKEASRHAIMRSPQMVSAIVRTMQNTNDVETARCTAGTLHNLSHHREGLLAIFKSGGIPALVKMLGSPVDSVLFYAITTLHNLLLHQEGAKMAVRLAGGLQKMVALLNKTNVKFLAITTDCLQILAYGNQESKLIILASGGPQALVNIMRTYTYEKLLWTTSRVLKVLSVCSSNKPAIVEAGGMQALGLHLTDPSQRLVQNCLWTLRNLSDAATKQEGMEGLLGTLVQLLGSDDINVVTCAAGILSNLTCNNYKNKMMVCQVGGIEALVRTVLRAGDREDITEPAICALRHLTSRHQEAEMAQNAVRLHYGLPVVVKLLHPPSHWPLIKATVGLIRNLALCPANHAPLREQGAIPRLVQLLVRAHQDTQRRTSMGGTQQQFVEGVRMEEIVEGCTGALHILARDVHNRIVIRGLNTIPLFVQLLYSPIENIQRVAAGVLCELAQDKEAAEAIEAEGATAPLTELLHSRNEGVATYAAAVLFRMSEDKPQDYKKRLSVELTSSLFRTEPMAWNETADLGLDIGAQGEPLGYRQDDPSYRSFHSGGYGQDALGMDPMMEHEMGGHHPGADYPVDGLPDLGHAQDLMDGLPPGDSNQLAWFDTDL
# Test: NanoBRET Abs IC50 in HEK293 cells; Bcat-Halo with TCF4-Luc as competitor
row,Binder,IC50
1,B1,23.8 µM
2,B2,17.4 µM
3,B3,41.9 µM
4,B4,34.4 µM
5,B5,47.9 µM

# Molecular target: full-length beta-Catenin (Uniprot ID P35222) (Homo sapiens (Human)) (UniProt P35222)
# Test: FP competition; full-length beta-catenin + 5FAM-TCF4(10-53) probe
# Target sequence in this assay (P35222 whole entry, the tested form may be a part, one chain of several): as the sequence (P35222 whole entry) above
row,Binder,IC50
1,B6,0.032 µM
2,B7,0.078 µM
3,B8,0.026 µM
4,B9,0.032 µM
5,B10,0.035 µM
6,B11,0.016 µM

# Molecular target: full-length beta-Catenin (Uniprot ID P35222) (Homo sapiens (Human)) (UniProt P35222)
# Test: fluorescence polarization competition; peptide titrated against 10 nM full-length beta-catenin + 10 nM 5FAM-TCF4(10-53) probe
# Target sequence in this assay (P35222 whole entry, the tested form may be a part, one chain of several): as the sequence (P35222 whole entry) above
row,Binder,EC50
1,B12,0.055 µM
2,B13,0.064 µM

# Molecular target: full-length beta-Catenin (Uniprot ID P35222) (Homo sapiens (Human)) (UniProt P35222)
# Test: fluorescence polarization competition; full-length beta-catenin, 5FAM-TCF4 10-53 probe as competitor
# Target sequence in this assay (P35222 whole entry, the tested form may be a part, one chain of several): as the sequence (P35222 whole entry) above
row,Binder,IC50
1,B14,0.005 µM
2,B15,0.006 µM
3,B16,0.007 µM
4,B17,0.041 µM
5,B18,0.037 µM
6,B19,0.027 µM

# Molecular target: full-length beta-Catenin (Uniprot ID P35222) (Homo sapiens (Human)) (UniProt P35222)
# Test: fluorescence polarization competition; full-length beta-catenin, competitor 5FAM-TCF4(10-53) probe
# Target sequence in this assay (P35222 whole entry, the tested form may be a part, one chain of several): as the sequence (P35222 whole entry) above
row,Binder,EC50
1,B20,0.211 µM
2,B21,0.08 µM
3,B22,0.054 µM

# Molecular target: full-length beta-Catenin (Uniprot ID P35222) (Homo sapiens (Human)) (UniProt P35222)
# Test: cell-based or functional assay
# Target sequence in this assay (P35222 whole entry, the tested form may be a part, one chain of several): as the sequence (P35222 whole entry) above
row,Binder,DLD1 4% Abs IC50
1,B14,4.1 µM

# Molecular target: full-length beta-Catenin (Uniprot ID P35222) (Homo sapiens (Human)) (UniProt P35222)
# Test: fluorescence polarization competition; 10 nM full-length beta-catenin with 10 nM 5FAM-TCF4 (residues 10-53) probe as competitor
# Target sequence in this assay (P35222 2-781 limits assumed): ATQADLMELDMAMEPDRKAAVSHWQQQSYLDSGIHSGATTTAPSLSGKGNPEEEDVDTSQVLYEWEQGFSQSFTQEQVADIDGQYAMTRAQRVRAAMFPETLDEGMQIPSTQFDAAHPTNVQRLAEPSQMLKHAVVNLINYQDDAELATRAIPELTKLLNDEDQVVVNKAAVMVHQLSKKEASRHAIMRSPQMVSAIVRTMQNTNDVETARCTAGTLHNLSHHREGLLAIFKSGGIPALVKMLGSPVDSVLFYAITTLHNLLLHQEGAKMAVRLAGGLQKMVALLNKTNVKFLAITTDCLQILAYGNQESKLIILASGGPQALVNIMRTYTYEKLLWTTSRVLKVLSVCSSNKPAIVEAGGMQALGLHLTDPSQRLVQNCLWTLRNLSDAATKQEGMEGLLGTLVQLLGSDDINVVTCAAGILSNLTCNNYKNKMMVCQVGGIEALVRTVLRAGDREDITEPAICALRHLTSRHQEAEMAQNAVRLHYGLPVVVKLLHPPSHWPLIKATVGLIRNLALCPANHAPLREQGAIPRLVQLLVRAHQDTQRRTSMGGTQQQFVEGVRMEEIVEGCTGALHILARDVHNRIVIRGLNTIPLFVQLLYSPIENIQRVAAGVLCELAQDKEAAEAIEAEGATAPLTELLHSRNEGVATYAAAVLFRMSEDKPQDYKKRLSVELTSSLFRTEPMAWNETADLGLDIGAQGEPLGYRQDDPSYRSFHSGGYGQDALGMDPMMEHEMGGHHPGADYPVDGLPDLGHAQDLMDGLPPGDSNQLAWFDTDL
row,Binder,EC50
1,B1,0.005 µM
2,B2,0.012 µM
3,B3,0.007 µM
4,B4,0.012 µM
5,B5,0.034 µM
6,B23,0.034 µM
7,B24,0.036 µM
8,B25,0.022 µM

# Molecular target: full-length beta-Catenin (Uniprot ID P35222) (Homo sapiens (Human)) (UniProt P35222)
# Test: FP competition vs 5FAM-TCF4(10-53), full-length beta-catenin
# Target sequence in this assay (P35222 2-781 limits assumed): as above
row,Binder,IC50
1,B23,0.034 µM
2,B24,0.036 µM
3,B25,0.022 µM

# Molecular target: Bcat-Halo (UniProt P35222)
# Sequence (P35222 whole entry): as the sequence (P35222 whole entry) above
# Test: NanoBRET (Abs IC50) in HEK293 cells; Bcat-Halo / TCF4-Luc
row,Binder,IC50
1,B6,7.8 µM
2,B7,17.9 µM
3,B8,9.7 µM
4,B9,17.6 µM
5,B10,26.2 µM
6,B11,20.9 µM

# Molecular target: Bcat-Halo (UniProt P35222)
# Test: NanoBRET Abs IC50, HEK293 cells, B-cat-Halo/TCF4-Luc; competitor TCF4-Luc
row,Binder,IC50
1,B23,> 20 µM
2,B24,> 20 µM
3,B25,> 20 µM

# Molecular target: full-length beta-Catenin (Uniprot ID P35222) (Homo sapiens (Human)) (UniProt P35222)
# Test: fluorescence polarization competition; full-length beta-catenin, 5FAM-TCF4 10-53 probe
# Target sequence in this assay (P35222 whole entry, the tested form may be a part, one chain of several): as the sequence (P35222 whole entry) above
row,Binder,IC50
1,B20,0.211 µM
2,B21,0.08 µM
3,B22,0.054 µM
4,B12,0.055 µM
5,B13,0.064 µM

# Molecular target: full-length beta-Catenin (Uniprot ID P35222) (Homo sapiens (Human)) (UniProt P35222)
# Test: fluorescence polarization competition; displacement of 5FAM-TCF4(10-53) from full-length beta-catenin
row,Binder,IC50
1,B1,0.005 µM
2,B2,0.012 µM
3,B3,0.007 µM
4,B4,0.012 µM
5,B5,0.034 µM

# Molecular target: Bcat-Halo (UniProt P35222)
# Test: NanoBRET Abs IC50; B-cat-Halo / TCF4-Luc engagement in HEK293 cells
row,Binder,IC50
1,B14,5.5 µM
2,B15,16.1 µM
3,B16,2.7 µM
4,B17,4.7 µM
5,B18,> 20 µM
6,B19,29.4 µM

# Molecular target: full-length beta-Catenin (Uniprot ID P35222) (Homo sapiens (Human)) (UniProt P35222)
# Test: fluorescence polarization competition; full-length beta-catenin with 5FAM-TCF4(10-53) probe as competitor
row,Binder,IC50
1,B20,0.211 µM
2,B21,0.08 µM
3,B22,0.054 µM
4,B12,0.055 µM
5,B13,0.064 µM
